Measurements published in US6048719.

System: DraIII restriction endonuclease (R.DraIII) (Deinococcus radiophilus)
Assay: cleavage_in_vitro
Settings: Source-15Q fraction 11; DraIII activity assayed on lambda DNA

Substance: lambda DNA
- activity: 121000 u/ml
